Data from US20240100159A1, “USE OF IL-7R-ALPHA-GAMMA AGONIST PEPTIDES IN CELL MANUFACTURING” (MEDIKINE, INC., priority 2022, published 2024).
Bridge positions count the residues as written; N and C are the ends. Ends that are not written are not given here.

T1: hu-IL-7Rα subunit (human, UniProt P16871 21-239, limits assumed)
T1 construct: also called human interleukin-7 receptor subunit α; CD127
T1 sequence (looked up): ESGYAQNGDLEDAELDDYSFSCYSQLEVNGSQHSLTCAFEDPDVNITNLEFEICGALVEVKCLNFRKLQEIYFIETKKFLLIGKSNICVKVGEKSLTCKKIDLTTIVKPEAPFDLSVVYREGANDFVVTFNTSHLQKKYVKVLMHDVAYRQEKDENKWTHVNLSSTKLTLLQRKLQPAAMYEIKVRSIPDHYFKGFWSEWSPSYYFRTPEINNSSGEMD

T2: hu-IL-7Rγc subunit (human, UniProt P31785 23-262, limits assumed)
T2 construct: also called human Rγc subunit; common γc receptor
T2 sequence (looked up): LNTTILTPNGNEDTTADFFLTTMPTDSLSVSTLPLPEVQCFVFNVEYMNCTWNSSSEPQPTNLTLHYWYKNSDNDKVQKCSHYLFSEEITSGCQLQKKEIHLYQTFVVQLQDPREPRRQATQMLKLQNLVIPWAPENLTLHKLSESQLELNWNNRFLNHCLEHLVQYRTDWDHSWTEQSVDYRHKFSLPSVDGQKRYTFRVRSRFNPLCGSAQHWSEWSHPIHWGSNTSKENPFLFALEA

T3: hu-IL-7Rγc subunit (human), P31785
T3 chain: T2 sequence (looked up)

T4: hu-IL-7Rα subunit (human), P16871
T4 chain: T1 sequence (looked up)


These binders were tested against T1, hu-IL-7Rα subunit (assay: phage ELISA competition assay).

Binder	IC50
NPFRSVVPWCALDPGSLQCAWL (also called IL-7Rα ligand) [SEQ ID NO 106]	< 10 µM
HCLHWNIETLMSCVYGNFEE (also called IL-7Rα ligand) [SEQ ID NO 100]	< 10 µM
SAKVLKQCLHWDLESLLSCL (also called IL-7Rα ligand) [SEQ ID NO 111]	< 10 µM
RHFDDIIPWCTLDPGSLQCAYL (also called IL-7Rα ligand) [SEQ ID NO 110]	< 10 µM
HLGVPWCTLDPGSIQCAWLAKH (also called IL-7Rα ligand) [SEQ ID NO 102]	< 10 µM
QCVHWDLDTLFGCIREQLEL (also called IL-7Rα ligand) [SEQ ID NO 109]	< 10 µM
QCIHWDLESLLNCLRELKEP (also called IL-7Rα ligand) [SEQ ID NO 108]	< 10 µM
HCKHWDLESLLLCV (also called IL-7Rα ligand) [SEQ ID NO 101]	< 10 µM
WVTIPWCILDPGSLQCEWQTKV (also called IL-7Rα ligand) [SEQ ID NO 115]	< 10 µM
GWGIPWCTLDPGSLQCAWLGKH (also called IL-7Rα ligand) [SEQ ID NO 116]	< 10 µM

Further lines, results first:

IC50	Binder
< 10 µM	VHRIPWCTLDPGGLQCAWLRQM (also called IL-7Rα ligand) [SEQ ID NO 114]
< 10 µM	IPWCLLDPGGLQCVWL (also called IL-7Rα ligand) [SEQ ID NO 104]
< 10 µM	YRSGHGIPWCMLDPGGLQCSWL (also called IL-7Rα ligand) [SEQ ID NO 117]
< 10 µM	IRSCLWQPGALHCTWWAEEEPV (also called IL-7Rα ligand) [SEQ ID NO 103]
< 10 µM	KAGSWFIPWCTLDPGSLQCAFL (also called IL-7Rα ligand) [SEQ ID NO 105]
< 10 µM	VPWCMLDPGSMQCAWL (also called IL-7Rα ligand) [SEQ ID NO 113]
< 10 µM	QCIHWDIETLLSCV (also called IL-7Rα ligand) [SEQ ID NO 107]

What follows are binders tested against T2, hu-IL-7Rγc subunit (assay: phage ELISA competition assay).

IC50	Binder
< 100 µM	GGVVCQDWEGVELCWQGG (disulfide 5-14 (inferred), also called Rγc ligand) [SEQ ID NO 327]

Target: T3, hu-IL-7Rγc subunit (human), P31785
Test: not given

IC50	Binder
< 100 µM	VVCQDWEGVELCWQ (modifications not checked) [SEQ ID NO 261]

Target: T3, hu-IL-7Rγc subunit (human), P31785
Test: not stated; binding to the specific binding site on the IL-7Rγc subunit

IC50	Binder
< 10 µM	KVCEMWGGVLLCWN (modifications not checked) [SEQ ID NO 461]

Target: T3, hu-IL-7Rγc subunit (human), P31785
Test: phage ELISA competition assay

IC50	Binder
< 100 µM	VVCQDWEGVELCWQ (modifications not checked) [SEQ ID NO 261]
< 100 µM	GGVVCQDWEGVELCWQ (modifications not checked) [SEQ ID NO 326]
< 100 µM	VVCQDWEGVELCWQGG (modifications not checked) [SEQ ID NO 325]

What follows are binders tested against T1, hu-IL-7Rα subunit (assay: not stated; binding to a unique binding site on the IL-7Rα subunit).

IC50	Binder
< 10 µM	QCVHWDLDTLFGCIREQLEL (also called IL-7Rα ligand) [SEQ ID NO 458]
< 10 µM	QCIHWDIETLLSCV (also called IL-7Rα ligand) [SEQ ID NO 455]
< 10 µM	GGVPWCTLDPGSLQCAWF (not fully specified (bridges); cysteine pairing not given here, also called IL-7Rα ligand) [SEQ ID NO 459]

Target: T4, hu-IL-7Rα subunit (human), P16871
Test: as above

IC50	Binder
< 10 µM	VYCAEIGEYRVCRQ (modifications not checked) [SEQ ID NO 456]
< 10 µM	YMACSSGLSLCRLS (modifications not checked) [SEQ ID NO 457]

Each binder was assayed against T2, hu-IL-7Rγc subunit (assay: not given).

Binder	IC50
VVCEVFQGVELCWCENEEFT (not fully specified (bridges); cysteine pairing not given here, also called Rγc ligand) [SEQ ID NO 302]	< 100 µM
ILCQEFEGVELCWLEESLAE (not fully specified (bridges); cysteine pairing not given here, also called Rγc ligand) [SEQ ID NO 284]	< 100 µM
VTCQEYEGVELCWTVGCAYS (not fully specified (bridges); cysteine pairing not given here, also called Rγc ligand) [SEQ ID NO 307]	< 100 µM
IECEEWAGVELCWL (not fully specified (bridges); cysteine pairing not given here, also called Rγc ligand) [SEQ ID NO 276]	< 100 µM
RSNQTVVECQDWEGVELCWQ (not fully specified (bridges); cysteine pairing not given here, also called Rγc ligand) [SEQ ID NO 282]	< 100 µM
RSDDEVVVCQEWEGVELCWQ (not fully specified (bridges); cysteine pairing not given here, also called Rγc ligand) [SEQ ID NO 275]	< 100 µM

Other lines, results leading:

IC50	Binder
< 100 µM	VVCQEWEGVELCWYAGECMQ (not fully specified (bridges); cysteine pairing not given here, also called Rγc ligand) [SEQ ID NO 283]
< 100 µM	KTTVACQDWGGVELCWVERV (not fully specified (bridges); cysteine pairing not given here, also called Rγc ligand) [SEQ ID NO 298]
< 100 µM	KKIVVCQDWGGVELCWTEDD (not fully specified (bridges); cysteine pairing not given here, also called Rγc ligand) [SEQ ID NO 317]
< 100 µM	WSKKAEVVCEEWGGVEFCWI (not fully specified (bridges); cysteine pairing not given here, also called Rγc ligand) [SEQ ID NO 281]
< 100 µM	VVCQEWEGVELCWC (not fully specified (bridges); cysteine pairing not given here, also called Rγc ligand) [SEQ ID NO 270]
< 100 µM	VVCQEWEGVELCWVEPPLLP (not fully specified (bridges); cysteine pairing not given here, also called Rγc ligand) [SEQ ID NO 295]
< 100 µM	KPVVVCEEWQGVELCWLEIQ (not fully specified (bridges); cysteine pairing not given here, also called Rγc ligand) [SEQ ID NO 301]
< 100 µM	EGSTTTIECEEWAGVELCWL (not fully specified (bridges); cysteine pairing not given here, also called Rγc ligand) [SEQ ID NO 273]
< 100 µM	RLLNSVVECLDWEGVELCWQ (not fully specified (bridges); cysteine pairing not given here, also called Rγc ligand) [SEQ ID NO 268]
< 100 µM	FAHHGVVECQEWYGVELCWQ (not fully specified (bridges); cysteine pairing not given here, also called Rγc ligand) [SEQ ID NO 279]
< 100 µM	KLTVECQDWDGVELCWVGVE (not fully specified (bridges); cysteine pairing not given here, also called Rγc ligand) [SEQ ID NO 293]

What follows are binders tested against T2, hu-IL-7Rγc subunit (assay: not stated; binding to the specific binding site on the IL-7Rγc subunit).

IC50	Binder
< 10 µM	MCWLEWGEWVGSCL (also called Rγc ligand) [SEQ ID NO 463]
< 10 µM	RTCTEWENVVLCWV (also called Rγc ligand) [SEQ ID NO 462]
< 10 µM	CPSMLQGPERTWVC (also called Rγc ligand) [SEQ ID NO 464]
